Results: publication PMC7752914

Assays:
[1] = biological target: α2βγ heterotetramer of wild-type HsIDH3 (human) (UniProt P50213); assay: SEC-MALS; low concentration (2 mg/ml); Superdex 200 10/300 GL, 24 °C, 10 mM HEPES pH 7.4, 200 mM NaCl, 5 mM β-ME
[2] = biological target: α2βγ heterotetramer of wild-type HsIDH3 (human) (UniProt P50213); assay: SEC-MALS; high concentration (12 mg/ml); Superdex 200 10/300 GL, 24 °C, 10 mM HEPES pH 7.4, 200 mM NaCl, 5 mM β-ME

stoichiometry N (heterotetramers in the heterooctamer) [1]: 2 | stoichiometry N (heterotetramers in the heterooctamer) [2]: 2
Substance: α2βγ heterotetramer of wild-type HsIDH3 (from UniProt P50213 28-366; O43837 35-385; P51553 40-393) (complex)
